Target: T1, alpha-fragment of EGFP (alphaCys-fragment, 1-158) without oligonucleotide (Aequorea victoria, UniProt P42212 1-158 = GFP)
T1 construct: range 1-158; also called α-subunit of EGFP
Assay: fluorescence spectra after mixing the fragments in vitro

B1: beta-fragment of EGFP (betaCys-fragment, 159-234 aa) without oligonucleotide (other)
chain: not shown
notes: range 159-234; also called β-subunit of EGFP
binding result: no binding

Source: patent publication US20090029370A1 (TRUSTEES OF BOSTON UNIVERSITY, published 2009)
